Read-outs that look alike come from different tables or passages of the source. One block for each molecule: values may come before it.
Key:
[1] = target: briakinumab-YTE/IL12 (human) (UniProt P29460); assay: MST
briakinumab (human) [2] = assay: MST
briakinumab-YTE (human) [3] = assay: MST
briakinumab/IL12 (human) [4] = target: briakinumab/IL12 (human) (UniProt P29460); assay: MST
[5] = target: ustekinumab-YTE/IL12 (human) (UniProt P29460); assay: MST
ustekinumab (human) [6] = assay: MST
[7] = target: briakinumab-YTE/IL12 (human) (UniProt P29460); assay: MST; remark: listed apart in the source
briakinumab (human) [8] = assay: MST; remark: listed apart in the source
briakinumab-YTE (human) [9] = assay: MST; remark: listed apart in the source
briakinumab/IL12 (human) [10] = target: briakinumab/IL12 (human) (UniProt P29460); assay: MST; remark: listed apart in the source
ustekinumab-YTE (human) [11] = assay: MST
[12] = target: ustekinumab-YTE/IL12 (human) (UniProt P29460); assay: MST; remark: listed apart in the source
ustekinumab/IL12 (human) = ustekinumab/IL12 (human) (UniProt P29460); assay: MST
ustekinumab (human) [13] = assay: SPR
briakinumab (human) [14] = assay: SPR
briakinumab-YTE (human) [15] = assay: SPR
ustekinumab-YTE (human) [16] = assay: SPR
[17] = target: recombinant form of hFcRn immobilized on the analytical FcRn column (UniProt P55899); assay: analytical hFcRn affinity chromatography
recombinant human IL-12 = recombinant human IL-12 (Homo sapiens, UniProt P29460;P29459); assay: ELISA

Molecule: ustekinumab-YTE (antibody)
elution pH from the hFcRn column [17]: 7.9 pH

B2: briakinumab-YTE (antibody, V domains shown)
VH: QVQLVESGGGVVQPGRSLRLSCAASGFTFSSYGMHWVRQAPGKGLEWVAFIRYDGSNKYYADSVKGRFTISRDNSKNTLYLQMNSLRAEDTAVYYCKTHGSHDNWGQGTMVTVSS
VL: QSVLTQPPSVSGAPGQRVTISCSGSRSNIGSNTVKWYQQLPGTAPKLLIYYNDQRPSGVPDRFSGSKSGTSASLAITGLQAEDEADYYCQSYDRYTHPALLFGTGTKVTVL
binding result (recombinant human IL-12): binds

Continued, values first:

Kd [1]: > 4000 nM
Kd (briakinumab (human) [2]): > 25000 nM
Kd (briakinumab-YTE (human) [3]): > 20000 nM
Kd (briakinumab/IL12 (human) [4]): > 10000 nM
Kd [5]: > 20000 nM
Kd (ustekinumab (human) [6]): 497 nM
Kd [7]: 98 nM
Kd (briakinumab (human) [8]): 599 nM
Kd (briakinumab-YTE (human) [9]): 79 nM
Kd (briakinumab/IL12 (human) [10]): 533 nM
Kd (ustekinumab-YTE (human) [11]): 100 nM
Kd [12]: 78 nM
Kd (ustekinumab/IL12 (human)): 1000 nM
Kd (ustekinumab (human) [13]): 653 nM
Kd (briakinumab (human) [14]): 545 nM
Kd (briakinumab-YTE (human) [15]): 64 nM
Kd (ustekinumab-YTE (human) [16]): 95.5 nM
Molecule: truncated monomeric His-tagged hFcRn (from UniProt P55899 24-365; P61769 21-119) (receptor)

elution pH from the hFcRn column [17]: 7.2 pH
Molecule: ustekinumab (antibody)

binding result (recombinant human IL-12): binds
B1: briakinumab (antibody, V domains shown)
VH: QVQLVESGGGVVQPGRSLRLSCAASGFTFSSYGMHWVRQAPGKGLEWVAFIRYDGSNKYYADSVKGRFTISRDNSKNTLYLQMNSLRAEDTAVYYCKTHGSHDNWGQGTMVTVSS
VL: QSVLTQPPSVSGAPGQRVTISCSGSRSNIGSNTVKWYQQLPGTAPKLLIYYNDQRPSGVPDRFSGSKSGTSASLAITGLQAEDEADYYCQSYDRYTHPALLFGTGTKVTVL

Source: paper PMC8800109 (iScience, 2022)
